Results reported in publication PMC10339064.

Molecular target: Peroxisome proliferator-activated receptor alpha (PPARα), wild type, FLAG-tagged (human) (UniProt Q07869)
Sequence of UniProt Q07869 (Q07869 whole entry): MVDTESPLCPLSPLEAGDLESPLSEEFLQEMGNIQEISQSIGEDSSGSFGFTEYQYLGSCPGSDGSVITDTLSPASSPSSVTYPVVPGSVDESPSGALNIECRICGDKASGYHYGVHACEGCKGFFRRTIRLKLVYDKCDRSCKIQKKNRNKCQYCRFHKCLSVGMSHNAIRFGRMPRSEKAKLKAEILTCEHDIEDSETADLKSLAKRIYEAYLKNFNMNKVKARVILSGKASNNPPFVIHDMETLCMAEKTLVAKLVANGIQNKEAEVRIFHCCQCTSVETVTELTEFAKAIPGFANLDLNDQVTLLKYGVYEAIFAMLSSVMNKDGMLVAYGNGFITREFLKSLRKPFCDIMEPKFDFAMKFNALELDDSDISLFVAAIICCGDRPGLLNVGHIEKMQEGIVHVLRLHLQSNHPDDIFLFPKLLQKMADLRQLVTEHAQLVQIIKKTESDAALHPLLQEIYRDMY

PPRE-driven luciferase reporter in HEK293 cells activated by ectopic PPARα; reduction by expression of CtBP2: 53%
Substance: C-terminal binding protein 2 (CtBP2), wild type, HA-tagged (from UniProt P56545 1-445) (natural protein)
